Among the data in patent publication US20200216522A1 (DENALI THERAPEUTICS, published 2020) are Kd, koff and kon values, retold here.

First the molecules themselves.
B1: Clone with H1_2-1 (antibody, V domains shown)
VH: EVQLLESGGGLVQPGGSLRLSCAASGFTFSSVGTSWVRQAPGKGLEWVASISGDGGSYIHYADSVKGRFTISRDNSKNTLYLQMNSLRAEDTAVYYCARLPYWGQGTLVTVSS
VL: DIVMTQSPDSLAVSLGERATINCKSSQSLLNSGNQKNYLTWYQQKPGQPPKLLIYWASTRESGVPDRFSGSGSGTDFTLTISSLQAEDVAVYYCQQYNSYPLTFGQGTKVEIKR
notes: based on hu1C7.v2
B2: Clone with L1_5 (antibody, V domains shown)
VH: EVQLLESGGGLVQPGGSLRLSCAASGFTFSSYGMSWVRQAPGKGLEWVASISGDGGSYIHYADSVKGRFTISRDNSKNTLYLQMNSLRAEDTAVYYCARLPYWGQGTLVTVSS
VL: DIVMTQSPDSLAVSLGERATINCKSSQSLLSSGNQKNYLTWYQQKPGQPPKLLIYWASTRESGVPDRFSGSGSGTDFTLTISSLQAEDVAVYYCQQYNSYPLTFGQGTKVEIKR
notes: based on hu1C7.v2
B3: Clone with H1_2-2 (antibody, V domains shown)
VH: EVQLLESGGGLVQPGGSLRLSCAASGFTFSMVGTSWVRQAPGKGLEWVASISGDGGSYIHYADSVKGRFTISRDNSKNTLYLQMNSLRAEDTAVYYCARLPYWGQGTLVTVSS
VL: DIVMTQSPDSLAVSLGERATINCKSSQSLLNSGNQKNYLTWYQQKPGQPPKLLIYWASTRESGVPDRFSGSGSGTDFTLTISSLQAEDVAVYYCQQYNSYPLTFGQGTKVEIKR
notes: based on hu1C7.v2
B4: Clone with H2_5 (antibody, V domains shown)
VH: EVQLLESGGGLVQPGGSLRLSCAASGFTFSSYGMSWVRQAPGKGLEWVASISGDGGSYIHYASSVKGRFTISRDNSKNTLYLQMNSLRAEDTAVYYCARLPYWGQGTLVTVSS
VL: DIVMTQSPDSLAVSLGERATINCKSSQSLLNSGNQKNYLTWYQQKPGQPPKLLIYWASTRESGVPDRFSGSGSGTDFTLTISSLQAEDVAVYYCQQYNSYPLTFGQGTKVEIKR
notes: based on hu1C7.v2
B5: Clone with H1_4-1 (antibody, V domains shown)
VH: EVQLLESGGGLVQPGGSLRLSCAASGFTFSGPGMSWVRQAPGKGLEWVASISGDGGSYIHYADSVKGRFTISRDNSKNTLYLQMNSLRAEDTAVYYCARLPYWGQGTLVTVSS
VL: DIVMTQSPDSLAVSLGERATINCKSSQSLLNSGNQKNYLTWYQQKPGQPPKLLIYWASTRESGVPDRFSGSGSGTDFTLTISSLQAEDVAVYYCQQYNSYPLTFGQGTKVEIKR
notes: based on hu1C7.v2
B6: Clone with H1_2-3 (antibody, V domains shown)
VH: EVQLLESGGGLVQPGGSLRLSCAASGFTFSQVGTSWVRQAPGKGLEWVASISGDGGSYIHYADSVKGRFTISRDNSKNTLYLQMNSLRAEDTAVYYCARLPYWGQGTLVTVSS
VL: DIVMTQSPDSLAVSLGERATINCKSSQSLLNSGNQKNYLTWYQQKPGQPPKLLIYWASTRESGVPDRFSGSGSGTDFTLTISSLQAEDVAVYYCQQYNSYPLTFGQGTKVEIKR
notes: based on hu1C7.v2
B7: Clone with H1_2-5 (antibody, V domains shown)
VH: EVQLLESGGGLVQPGGSLRLSCAASGFTFSKVGTSWVRQAPGKGLEWVASISGDGGSYIHYADSVKGRFTISRDNSKNTLYLQMNSLRAEDTAVYYCARLPYWGQGTLVTVSS
VL: DIVMTQSPDSLAVSLGERATINCKSSQSLLNSGNQKNYLTWYQQKPGQPPKLLIYWASTRESGVPDRFSGSGSGTDFTLTISSLQAEDVAVYYCQQYNSYPLTFGQGTKVEIKR
notes: based on hu1C7.v2
B8: Clone with H2_4 (antibody, V domains shown)
VH: EVQLLESGGGLVQPGGSLRLSCAASGFTFSSYGMSWVRQAPGKGLEWVASISGDAGSYIHYADSVKGRFTISRDNSKNTLYLQMNSLRAEDTAVYYCARLPYWGQGTLVTVSS
VL: DIVMTQSPDSLAVSLGERATINCKSSQSLLNSGNQKNYLTWYQQKPGQPPKLLIYWASTRESGVPDRFSGSGSGTDFTLTISSLQAEDVAVYYCQQYNSYPLTFGQGTKVEIKR
notes: based on hu1C7.v2
B9: Clone with H1_4-2 (antibody, V domains shown)
VH: EVQLLESGGGLVQPGGSLRLSCAASGFQFSGPGMSWVRQAPGKGLEWVASISGDGGSYIHYADSVKGRFTISRDNSKNTLYLQMNSLRAEDTAVYYCARLPYWGQGTLVTVSS
VL: DIVMTQSPDSLAVSLGERATINCKSSQSLLNSGNQKNYLTWYQQKPGQPPKLLIYWASTRESGVPDRFSGSGSGTDFTLTISSLQAEDVAVYYCQQYNSYPLTFGQGTKVEIKR
notes: based on hu1C7.v2
B10: Clone with L1_4 (antibody, V domains shown)
VH: EVQLLESGGGLVQPGGSLRLSCAASGFTFSSYGMSWVRQAPGKGLEWVASISGDGGSYIHYADSVKGRFTISRDNSKNTLYLQMNSLRAEDTAVYYCARLPYWGQGTLVTVSS
VL: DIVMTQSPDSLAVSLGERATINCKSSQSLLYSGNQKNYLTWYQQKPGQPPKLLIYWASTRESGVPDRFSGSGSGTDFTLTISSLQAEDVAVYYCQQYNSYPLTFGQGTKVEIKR
notes: based on hu1C7.v2
B11: Clone with H2_2 (antibody, V domains shown)
VH: EVQLLESGGGLVQPGGSLRLSCAASGFTFSSYGMSWVRQAPGKGLEWVASISGTGGSYIHYADSVKGRFTISRDNSKNTLYLQMNSLRAEDTAVYYCARLPYWGQGTLVTVSS
VL: DIVMTQSPDSLAVSLGERATINCKSSQSLLNSGNQKNYLTWYQQKPGQPPKLLIYWASTRESGVPDRFSGSGSGTDFTLTISSLQAEDVAVYYCQQYNSYPLTFGQGTKVEIKR
notes: based on hu1C7.v2
B12: Clone with H1_2-4 (antibody, V domains shown)
VH: EVQLLESGGGLVQPGGSLRLSCAASGFTFSLVGTSWVRQAPGKGLEWVASISGDGGSYIHYADSVKGRFTISRDNSKNTLYLQMNSLRAEDTAVYYCARLPYWGQGTLVTVSS
VL: DIVMTQSPDSLAVSLGERATINCKSSQSLLNSGNQKNYLTWYQQKPGQPPKLLIYWASTRESGVPDRFSGSGSGTDFTLTISSLQAEDVAVYYCQQYNSYPLTFGQGTKVEIKR
notes: based on hu1C7.v2
B13: Clone with H1_4-5 (antibody, V domains shown)
VH: EVQLLESGGGLVQPGGSLRLSCAASGFRFSGYGMSWVRQAPGKGLEWVASISGDGGSYIHYADSVKGRFTISRDNSKNTLYLQMNSLRAEDTAVYYCARLPYWGQGTLVTVSS
VL: DIVMTQSPDSLAVSLGERATINCKSSQSLLNSGNQKNYLTWYQQKPGQPPKLLIYWASTRESGVPDRFSGSGSGTDFTLTISSLQAEDVAVYYCQQYNSYPLTFGQGTKVEIKR
notes: based on hu1C7.v2
B14: Clone with H2_1 (antibody, V domains shown)
VH: EVQLLESGGGLVQPGGSLRLSCAASGFTFSSYGMSWVRQAPGKGLEWVASISGEGGSYIHYADSVKGRFTISRDNSKNTLYLQMNSLRAEDTAVYYCARLPYWGQGTLVTVSS
VL: DIVMTQSPDSLAVSLGERATINCKSSQSLLNSGNQKNYLTWYQQKPGQPPKLLIYWASTRESGVPDRFSGSGSGTDFTLTISSLQAEDVAVYYCQQYNSYPLTFGQGTKVEIKR
notes: based on hu1C7.v2
B15: Clone with H2_6 (antibody, V domains shown)
VH: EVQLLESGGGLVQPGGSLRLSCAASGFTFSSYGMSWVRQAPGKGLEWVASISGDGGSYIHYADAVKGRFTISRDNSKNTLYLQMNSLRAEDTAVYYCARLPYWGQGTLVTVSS
VL: DIVMTQSPDSLAVSLGERATINCKSSQSLLNSGNQKNYLTWYQQKPGQPPKLLIYWASTRESGVPDRFSGSGSGTDFTLTISSLQAEDVAVYYCQQYNSYPLTFGQGTKVEIKR
notes: based on hu1C7.v2
B16: Clone with H1_4-4 (antibody, V domains shown)
VH: EVQLLESGGGLVQPGGSLRLSCAASGFRFSSPGMSWVRQAPGKGLEWVASISGDGGSYIHYADSVKGRFTISRDNSKNTLYLQMNSLRAEDTAVYYCARLPYWGQGTLVTVSS
VL: DIVMTQSPDSLAVSLGERATINCKSSQSLLNSGNQKNYLTWYQQKPGQPPKLLIYWASTRESGVPDRFSGSGSGTDFTLTISSLQAEDVAVYYCQQYNSYPLTFGQGTKVEIKR
notes: based on hu1C7.v2
B17: Clone with H1_4-3 (antibody, V domains shown)
VH: EVQLLESGGGLVQPGGSLRLSCAASGFMFSGPGMSWVRQAPGKGLEWVASISGDGGSYIHYADSVKGRFTISRDNSKNTLYLQMNSLRAEDTAVYYCARLPYWGQGTLVTVSS
VL: DIVMTQSPDSLAVSLGERATINCKSSQSLLNSGNQKNYLTWYQQKPGQPPKLLIYWASTRESGVPDRFSGSGSGTDFTLTISSLQAEDVAVYYCQQYNSYPLTFGQGTKVEIKR
notes: based on hu1C7.v2
B18: Clone with H2_3 (antibody, V domains shown)
VH: EVQLLESGGGLVQPGGSLRLSCAASGFTFSSYGMSWVRQAPGKGLEWVASISGSGGSYIHYADSVKGRFTISRDNSKNTLYLQMNSLRAEDTAVYYCARLPYWGQGTLVTVSS
VL: DIVMTQSPDSLAVSLGERATINCKSSQSLLNSGNQKNYLTWYQQKPGQPPKLLIYWASTRESGVPDRFSGSGSGTDFTLTISSLQAEDVAVYYCQQYNSYPLTFGQGTKVEIKR
notes: based on hu1C7.v2

T1 sequence (P10636 other isoform, or with tags, fused parts or gaps limits assumed): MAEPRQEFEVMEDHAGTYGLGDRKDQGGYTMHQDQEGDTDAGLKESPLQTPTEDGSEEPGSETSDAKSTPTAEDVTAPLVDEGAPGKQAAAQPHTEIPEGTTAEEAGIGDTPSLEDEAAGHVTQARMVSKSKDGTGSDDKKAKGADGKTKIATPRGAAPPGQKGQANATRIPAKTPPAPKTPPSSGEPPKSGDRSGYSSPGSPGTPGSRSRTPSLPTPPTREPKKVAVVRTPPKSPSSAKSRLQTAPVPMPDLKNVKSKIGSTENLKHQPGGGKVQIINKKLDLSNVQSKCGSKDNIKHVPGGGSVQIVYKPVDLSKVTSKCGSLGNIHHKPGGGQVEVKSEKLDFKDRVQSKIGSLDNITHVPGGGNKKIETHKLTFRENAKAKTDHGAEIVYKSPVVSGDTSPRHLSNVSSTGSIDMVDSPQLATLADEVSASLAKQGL

The test concerns the target T1, full-length human Tau (Tau441; 2N4R), recombinant (human, UniProt P10636 1-758).
T1 construct: made in E. coli, His6-Smt3 tag removed; biotinylated through amines for Octet and phage work; also called r-Tau; recombinant Tau
Briefly: SPR Biacore. As for the experimental part:
IgG was purified with protein A affinity chromatography. The affinity of each hulC7 IgG variant for r-Tau was determined by surface plasmon resonance using a Biacore™ T200 instrument. Biacore™ Series S CM5 sensor chips were immobilized with monoclonal mouse anti-human IgG (Fc) antibody (Human antibody capture kit from GE Healthcare). Serial 3-fold dilutions of each hulC7 variant were injected at a flow rate of […]. Each sample was analyzed with 3-minute association and 10-minute dissociation. After each injection, the chip was regenerated using 3 M MgCl₂. Binding response was corrected by subtracting the RU from a flow cell capturing an irrelevant IgG at similar density. A 1:1 Languir model of simultaneous fitting of kₒₙ and koff was used for kinetics analysis.
A further round of affinity maturation was performed by mutating certain amino acids in selected CDR-H1, CDR-L1, and CDR-L3 sequences from Table 9A, as well as the sequence of CDR-H2 (SEQ ID NO:23) of hulC7.v2. Sequence changes were identified in each CDR (Table 9B). Binding affinities were evaluated using Biacore™ (Table 10B).
On the technique in general: SPR reads the build-up and loss of mass on a sensor chip optically.
A word on the Kd: it is the free concentration of one partner at which half of the binding sites on the other are occupied at equilibrium, for simple one-to-one binding. As usually defined, the koff is the rate constant with which the complex falls apart. In general, kon refers to a measure of how fast the partners come together. B1: the dissociation constant (Kd) amounted to 1.3 nM, the koff stood at 0.000183 s⁻¹ and the kon came out at 141000 M⁻¹ s⁻¹.
Regarding B2, the Kd came to 1.39 nM, the koff was 0.000885 s⁻¹ and the on-rate constant (kon) turned out to be 636000 M⁻¹ s⁻¹.
Consider B3, for which the Kd worked out at 0.759 nM, the off-rate (koff) was determined as 9.71e-05 s⁻¹ and the kon came out at 128000 M⁻¹ s⁻¹.
In the case of B4, the Kd came to 3.79 nM, the koff came out at 0.00176 s⁻¹ and the on-rate (kon) worked out at 465000 M⁻¹ s⁻¹.
As for B5, the Kd was 0.837 nM, the koff turned out to be 0.000144 s⁻¹ and the association rate constant (kon) worked out at 172000 M⁻¹ s⁻¹.
The corresponding values for B6 are 0.477 nM, 9.39e-05 s⁻¹ and 197000 M⁻¹ s⁻¹.
Take B7: the Kd was 0.578 nM, the koff turned out to be 0.000144 s⁻¹ and the kon amounted to 249000 M⁻¹ s⁻¹.
As to B8, the Kd was determined as 6.4 nM, the koff turned out to be 0.00309 s⁻¹ and the on-rate constant (kon) is 484000 M⁻¹ s⁻¹.
For the molecule B9, the dissociation constant Kd came to 0.416 nM, the dissociation rate constant (koff) was found to be 0.000128 s⁻¹ and the kon turned out to be 308000 M⁻¹ s⁻¹.
Consider B10, for which the equilibrium dissociation constant (Kd) was 0.577 nM, the koff stood at 0.000662 s⁻¹ and the on-rate (kon) is 1.15e+06 M⁻¹ s⁻¹.
Taken in the same sequence, the figures for B11 were 9.11 nM, 0.00378 s⁻¹ and 415000 M⁻¹ s⁻¹.
B12: the Kd was 1.41 nM, the koff came out at 0.000151 s⁻¹ and the kon was determined as 107000 M⁻¹ s⁻¹.
Regarding B13, the equilibrium dissociation constant (Kd) turned out to be 0.591 nM, the koff worked out at 0.000163 s⁻¹ and the kon came out at 276000 M⁻¹ s⁻¹.
For the molecule B14, the Kd is 8.28 nM, the dissociation rate constant (koff) worked out at 0.00369 s⁻¹ and the kon stood at 446000 M⁻¹ s⁻¹.
Taken in the same sequence, the figures for B15 were 3.79 nM, 0.00175 s⁻¹ and 462000 M⁻¹ s⁻¹.
Regarding B16, the Kd is 3.81 nM, the dissociation rate constant (koff) was 0.00126 s⁻¹ and the kon was determined as 331000 M⁻¹ s⁻¹.
With B17, the Kd was 0.502 nM, the koff came to 0.000203 s⁻¹ and the kon turned out to be 404000 M⁻¹ s⁻¹.
The corresponding values for B18 are 9.68 nM, 0.00408 s⁻¹ and 422000 M⁻¹ s⁻¹.
